# Laboratory results reported in IntAct's records for PubMed 21135237.
# B1: Glutamate receptor 1 (Rattus norvegicus (Rat)), P19490 (parent)
# chain: MPYIFAFFCTGFLGAVVGANFPNNIQIGGLFPNQQSQEHAAFRFALSQLTEPPKLLPQIDIVNISDSFEMTYRFCSQFSKGVYAIFGFYERRTVNMLTSFCGALHVCFITPSFPVDTSNQFVLQLRPELQEALISIIDHYKWQTFVYIYDADRGLSVLQRVLDTAAEKNWQVTAVNILTTTEEGYRMLFQDLEKKKERLVVVDCESERLNAILGQIVKLEKNGIGYHYILANLGFMDIDLNKFKESGANVTGFQLVNYTDTIPARIMQQWRTSDSRDHTRVDWKRPKYTSALTYDGVKVMAEAFQSLRRQRIDISRRGNAGDCLANPAVPWGQGIDIQRALQQVRFEGLTGNVQFNEKGRRTNYTLHVIEMKHDGIRKIGYWNEDDKFVPAATDAQAGGDNSSVQNRTYIVTTILEDPYVMLKKNANQFEGNDRYEGYCVELAAEIAKHVGYSYRLEIVSDGKYGARDPDTKAWNGMVGELVYGRADVAVAPLTITLVREEVIDFSKPFMSLGISIMIKKPQKSKPGVFSFLDPLAYEIWMCIVFAYIGVSVVLFLVSRFSPYEWHSEEFEEGRDQTTSDQSNEFGIFNSLWFSLGAFMQQGCDISPRSLSGRIVGGVWWFFTLIIISSYTANLAAFLTVERMVSPIESAEDLAKQTEIAYGTLEAGSTKEFFRRSKIAVFEKMWTYMKSAEPSVFVRTTEEGMIRVRKSKGKYAYLLESTMNEYIEQRKPCDTMKVGGNLDSKGYGIATPKGSALRNPVNLAVLKLNEQGLLDKLKNKWWYDKGECGSGGGDSKDKTSALSLSNVAGVFYILIGGLGLAMLVALIEFCYKSRSESKRMKGFCLIPQQSINEAIRTSTLPRNSGAGASGGGGSGENGRVVSQDFPKSMQSIPCMSHSSGMPLGATGL
# Variants of: B1
# Conditions: with kcc2a_rat Camk2a
row,effect of a mutation on the interaction,Variant
1,disrupting interaction,S567A
